Laboratory results: patent publication US20160030629A1, “PEPTIDE-ALBUMIN HYDROGEL PROPERTIES AND ITS APPLICATIONS” (KANSAS STATE UNIVERSITY RESEARCH FOUNDATION, priority 2012, published 2016)

Experiments:
Assay type in all cases: physicochemical
[1] = Stability of h9e-2i hydrogel and of h9e peptide solution
Experimental: The stability of h9e-2i medium hydrogel was tested. A plastic tray was placed on the bottom of the well plate. Next, 1 wt % h9e solution was mixed with 2i medium at 1:1 (v:v) ratio in a centrifuge tube and then transferred into the well plate. There was 500 μl peptide hydrogel for each well. The well plate was then placed in an incubator for 1 hour. After hydrogel was stable, another 500 μl of 2i medium was slowly added on the top of hydrogel. The top medium was replaced every other day. For mechanical testing, the top 2i medium was removed and hydrogel was transferred to a dynamic rheometer using the tray. The stability of the peptide solution was also tested using 1 wt % peptide solution stored in 4° C. refrigerator for up to 24 days. Part of the peptide solution was taken out and mixed with 2i medium with 1:1 (v:v) ratio on days 1, 6, 18 and 24.

[2] = h9e hydrogel formation in cell culture media, serum/albumin dependence
Description: This phenomenon was further exploited in other cell culture medium like Dulbecco's modified Eagle's medium (DMEM), Roswell Park Memorial Institute medium (RPMI), and Leibovitz medium (L-15). […] After screening the abundant serum compounds, we concentrated on one of the most abundant proteins in serum, albumin, which contains charged groups and several surface binding domains.

[3] = Rheology (storage modulus, hydrogel forming rate) of h9e/BSA mixtures; details: 3 mM h9e solution without BSA, 30 min test
Experimental: BSA and HSA were dissolved in water with 5 wt % concentration. The peptide solution and albumin solution were then mixed at different ratios for final mixtures of 1, 2, 3 mM h9e peptide with albumin from 0.1 to 5 wt %.
The storage (G′) and loss (G″) moduli of h9e hydrogels with different peptide/albumin ratios were measured on a rheometer system C-VOR 150 (Malvern instruments, Malvern, Worcestershire WR141XZ, United Kingdom) with a 20 mm diameter parallel plate test system. All rheological tests were carried out at 37° C. […]

[4] = Comparison of material properties of different 3D cell culture hydrogels
Description: In addition, for in vitro 3D cell culture, cell encapsulation and isolation are two critical steps to introduce 3D spatial support for cell growth and to recover embedded cells from the scaffold matrix for downstream studies respectively. For a convenient, effective, and safe encapsulation, cells should be added simultaneously with the initialization of hydrogelation. Therefore, mild and cyto-compatible hydrogel-forming conditions are preferred, to ensure that cells survive comfortably during gel formation. However, the sol-gel transformation of currently used peptide/protein hydrogels (i.e., puramatrix gel, hydromatix peptide hydrogel, and matrigel) is triggered by adjusting pH or temperature (Table 1).

[5] = pH of synthesized peptide in water solution
Description: Peptides were synthesized on a CEM Liberty microwave peptide synthesizer (CEM Corporation, Matthews, N.C.) based on the automated base-labile 9-fluorenylmethoxycarbonyl (Fmoc) strategy with Fmoc-protected amino acids (EMD Biosciences, San Diego, Calif.). Peptides were cleaved with 95% trifluoroacetic acid (Sigma-Aldrich, Milwaukee, Wis.), 2.5% triisopropylsilane (Sigma), and 2.5% deionized water. The crude peptides were washed three times with anhydrous ether (Fisher Biotech, Fair Lawn, N.J.). After that, peptides were dissolved in acetonitrile and distilled (DI) water (50/50 v/v). The peptide solution was frozen in a −80° C. refrigerator overnight and then was freeze-dried for 48 hours by using the Labconco freeze dry system (Labconco, Kansas City, Mo.). The pH value of the peptide in water solution was 3.6. Molecular weight of the synthesized peptide was confirmed by matrix-assisted laser desorption/ionization time-of-flight mass spectroscopy on an Ultraflex II instrument (Bruker Daltronics, Billerica, Mass.). The peptide purity was confirmed by a Beckman System Gold high performance liquid chromatography (HPLC, Beckman Coulter, Inc., Fullerton, Calif.) on a phenomenex synergi 4μ Hydro-RP column (Phenomenex, Inc., Torance, Calif.) with the following gradient: 10-90% B in 20 min (A: 99.9% H2O, 0.1% TFA; B: 90% acetonitrile, 9.9% H2O, 0.1% TFA).

With “FLIVIGSIIGPGGDGPGGD (Derivative of spider flagelliform silk protein and a trans-membrane segment of subunit IV in the dihydropyridine sensitive human muscle L-type calcium channel) [h9e, 19 unit amphiphilic self-assembling peptide]” the “hydrogel formation with 2i medium after storage of solution” value ([1]; 1 wt % h9e solution stored at 4° C. for 24 days) was “could still from a hydrogel”, the “stability of h9e solution” value ([1]; recent study, no details) was “exceed 2 months” and the “solution to hydrogel transition” value ([2]; MEM without serum) was “did not stimulate this solution to hydrogel transitions effectively”. The “time to transform into a self-supporting hydrogel matrix” value ([2]; h9e peptide solution added into MEM with 10% serum) was no more than 1 min, the hydrogel formation ([2]; serum-free N2B27 supplemented 2i medium with 1 wt % albumin) was “hydrogel formation” and the rheological behaviour [3] was “performed as Newtonian liquid”. The Porosity [4] was 50-200 nm, the “Solution pH” value [4] was “Neutral” and the “pH value of the peptide in water solution” value [5] was 3.6.
